This note sets out measurements from PMC2957832 (Biochemical and biophysical research communications, 2010).

This data set concerns the molecule itself. The data set is described as follows: SEC.

B1: Purβ core tryptic fragment (residues 29–305) (domain or fragment, mouse, UniProt O35295 29-305, looked up)
chain: GGGGGGGGPGGEQETQELASKRLDIQNKRFYLDVKQNAKGRFLKIAEVGAGGSKSRLTLSMAVAAEFRDSLGDFIEHYAQLGPSSPEQLAAGAEEGGGPRRALKSEFLVRENRKYYLDLKENQRGRFLRIRQTVNRGGGGFGGGPGPGGLQSGQTIALPAQGLIEFRDALAKLIDDYGGDEDELAGGPGGGAGGPGGGLYGELPEGTSITVDSKRFFFDVGCNKYGVFLRVSEVKPSYRNAITVPFKAWGKFGGAFCRYADEMKEIQERQRDKLYER
Consider B1, for which the “stoichiometry N” value is 2.
